The experiment has as its target E546N mutant human inducible NOS oxygenase/FMN (oxyFMN) construct (human) (UniProt P35228). Nature of the experiment: cross-linking; DSBU 250 uM with 5 uM iNOS oxyFMN (co-purified with CaM), 20 mM HEPES, 100 mM NaCl, 1 mM CaCl2, pH 7.5, 30 min, room temperature; SDS-PAGE, dimeric band digested in gel; LC-MS/MS on timsTOF (DDA-PASEF, then PRM-PASEF for quantitation), lysine-lysine cross-links only.
Sequence of UniProt P35228 (P35228 71-723 E546N): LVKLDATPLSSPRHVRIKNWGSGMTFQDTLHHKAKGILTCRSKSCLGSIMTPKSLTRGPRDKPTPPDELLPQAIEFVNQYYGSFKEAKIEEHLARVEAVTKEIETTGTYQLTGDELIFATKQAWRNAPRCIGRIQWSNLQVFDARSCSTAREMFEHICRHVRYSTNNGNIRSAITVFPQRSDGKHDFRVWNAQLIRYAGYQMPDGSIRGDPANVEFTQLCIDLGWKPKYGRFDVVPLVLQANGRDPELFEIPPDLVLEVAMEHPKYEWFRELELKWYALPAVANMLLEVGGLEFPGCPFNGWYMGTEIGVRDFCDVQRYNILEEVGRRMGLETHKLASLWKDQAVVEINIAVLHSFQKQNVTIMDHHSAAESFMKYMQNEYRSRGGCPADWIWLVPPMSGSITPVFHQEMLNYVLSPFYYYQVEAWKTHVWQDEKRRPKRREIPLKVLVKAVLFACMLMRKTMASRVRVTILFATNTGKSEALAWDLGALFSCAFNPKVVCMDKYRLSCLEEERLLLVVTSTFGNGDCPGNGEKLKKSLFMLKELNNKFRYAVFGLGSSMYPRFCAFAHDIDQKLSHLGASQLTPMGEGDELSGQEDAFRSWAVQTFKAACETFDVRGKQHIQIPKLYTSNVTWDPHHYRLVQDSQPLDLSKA

For “calmodulin (from UniProt P0DP23 1-149) (natural protein)”, the log2 fold-change (E546N/wt) of the abundance of cross-link 75–516 CaM-helix (intra) (log2(E546N/wt)) is -1.04.

For the origin of these results see PMC12597282.
